The target of assay [1] is T1, human GLP-1 receptor (human, UniProt P43220 24-463).
T1 construct: whole, on cells; Used as purified membranes of the transfected hamster cells, not whole cells; also called hGLP-1
Put plainly: SPA, displacement of 125I-GLP-1(7-36)NH2, 0.005% HSA. A general note: Loss of bound radioactivity is the signal in a displacement assay; it reports binding, not function.

Assay [2] deals with T1, human GLP-1 receptor. Nature of the assay: SPA, 2.0% vs 0.005% HSA.

*1 amine or outer side, *2 acyl side, *3 side chain or, on linkers, in order; H or OH if unused. Where no end group is shown, it is not given here. Side-chain parts run from the residue outwards. [ ]: non-standard residue; d: D form. The star is where a group is joined. 8‑(4-carboxyphenoxy)octanoyl = O=C(O)c1ccc(OCCCCCCCC(=O)*)cc1; Decanoyl(10-(4-HOOC-PhO)) = O=C(O)c1ccc(OCCCCCCCCCC(=O)*)cc1; γGlu = O=C(O)[C@H](CCC(=O)[*:2])N[*:1]; 13‑carboxytridecanoyl = C14 diacid; AEEA = NCCOCCOCC(=O)O; Aib = CC(C)(N)C(=O)O Some results are limits rather than exact numbers.

Broadly, the IC50 is the concentration needed to halve the response being measured. Read a high IC50 as a need for much substance. For H[Aib]EGTFTSDVSK([AEEA-γGlu-AEEA-Decanoyl(10-(4-HOOC-PhO))])YLEEQAAK([AEEA-γGlu-AEEA-Decanoyl(10-(4-HOOC-PhO))])EFIAWLVQGRG [GLP-1 derivative of Example 90: [Aib8,Lys18,Glu22,Gln34]-GLP-1-(7-37)-peptide], the IC50 with human GLP-1 receptor [1] is less than 1000 nM. Besides, in the assay with human GLP-1 receptor [2], the “ratio IC50 high HSA/IC50 low HSA” value is more than 1.

In the assay with human GLP-1 receptor [1], H[Aib]EGTFTSDVSK([AEEA-AEEA-γGlu-8‑(4-carboxyphenoxy)octanoyl])YLEEQAAK([AEEA-AEEA-γGlu-8‑(4-carboxyphenoxy)octanoyl])EFIAWLVQGRG [GLP-1 derivative of Example 87: [Aib8,Lys18,Glu22,Gln34]-GLP-1-(7-37)-peptide] displayed an IC50 of less than 1000 nM. Further, the “ratio IC50 high HSA/IC50 low HSA” value with human GLP-1 receptor [2] is more than 1.

H[Aib]EGTFTSDVSK([AEEA-AEEA-γGlu-2‑phenylcyclopropanecarbonyl])YLEEQAAK([AEEA-AEEA-γGlu-2‑phenylcyclopropanecarbonyl])EFIAWLVQGRG [GLP-1 derivative of Example 79: [Aib8,Lys18,Glu22,Gln34]-GLP-1-(7-37)-peptide] yielded an IC50 with human GLP-1 receptor [1] of less than 1000 nM. The “ratio IC50 high HSA/IC50 low HSA” value with human GLP-1 receptor [2] is more than 1.

Turning to H[Aib]EGTFTSDVSK([AEEA-AEEA-13‑carboxytridecanoyl])YLEEQAAK([AEEA-AEEA-13‑carboxytridecanoyl])EFIAWLVQGRG [GLP-1 derivative of Example 84: [Aib8,Lys18,Glu22,Gln34]-GLP-1-(7-37)-peptide], in the assay with human GLP-1 receptor [1], the IC50 is less than 1000 nM. Also, the “ratio IC50 high HSA/IC50 low HSA” value with human GLP-1 receptor [2] is more than 1.

In the assay with human GLP-1 receptor [1], H[Aib]EGTFTSDVSK([AEEA-γGlu-AEEA-13‑carboxytridecanoyl])YLEEQAAK([AEEA-γGlu-AEEA-13‑carboxytridecanoyl])EFIAWLVQGRG [GLP-1 derivative of Example 86: [Aib8,Lys18,Glu22,Gln34]-GLP-1-(7-37)-peptide] yielded a concentration for half-maximal inhibition (IC50) of less than 1000 nM. The “ratio IC50 high HSA/IC50 low HSA” value with human GLP-1 receptor [2] was more than 1.

With H[Aib]EGTFTSDVSK([AEEA-AEEA-γGlu-13‑carboxytridecanoyl])YLEEQAAK([AEEA-AEEA-γGlu-13‑carboxytridecanoyl])EFIAWLVQGRG [GLP-1 derivative of Example 80: [Aib8,Lys18,Glu22,Gln34]-GLP-1-(7-37)-peptide], in the assay with human GLP-1 receptor [1], the IC50 was less than 1000 nM. Moreover, in the assay with human GLP-1 receptor [2], the “ratio IC50 high HSA/IC50 low HSA” value was more than 1.

As for H[Aib]EGTFTSDVSK([AEEA-AEEA-AEEA-AEEA-Decanoyl(10-(4-HOOC-PhO))])YLEEQAAK([AEEA-AEEA-AEEA-AEEA-Decanoyl(10-(4-HOOC-PhO))])EFIAWLVQGRG [GLP-1 derivative of Example 71: [Aib8,Lys18,Glu22,Gln34]-GLP-1-(7-37)-peptide], the IC50 in the assay with human GLP-1 receptor [1] is less than 1000 nM. For the same molecule, the “ratio IC50 high HSA/IC50 low HSA” value with human GLP-1 receptor [2] was more than 1.

In the assay with human GLP-1 receptor [1], H[Aib]EGTFTSDVSK([γGlu-AEEA-AEEA-Decanoyl(10-(4-HOOC-PhO))])YLEEQAAK([γGlu-AEEA-AEEA-Decanoyl(10-(4-HOOC-PhO))])EFIAWLVQGRG [GLP-1 derivative of Example 82: [Aib8,Lys18,Glu22,Gln34]-GLP-1-(7-37)-peptide] had an IC50 of less than 1000 nM. Also, the “ratio IC50 high HSA/IC50 low HSA” value with human GLP-1 receptor [2] was more than 1.

For the molecule H[Aib]EGTFTSDVSK([AEEA-AEEA-Decanoyl(10-(4-HOOC-PhO))])YLEEQAAK([AEEA-AEEA-Decanoyl(10-(4-HOOC-PhO))])EFIAWLVQGRG [GLP-1 derivative of Example 85: [Aib8,Lys18,Glu22,Lys26,Gln34]-GLP-1-(7-37)-peptide], in the assay with human GLP-1 receptor [1], the IC50 was less than 1000 nM. For the same molecule, the “ratio IC50 high HSA/IC50 low HSA” value with human GLP-1 receptor [2] is more than 1.

The molecule H[Aib]EGTFTSDVSK([AEEA-AEEA-AEEA-AEEA-γGlu-Decanoyl(10-(4-HOOC-PhO))])YLEEQAAK([AEEA-AEEA-AEEA-AEEA-γGlu-Decanoyl(10-(4-HOOC-PhO))])EFIAWLVQGRG [GLP-1 derivative of Example 69: [Aib8,Lys18,Glu22,Gln34]-GLP-1-(7-37)-peptide] yielded an IC50 in the assay with human GLP-1 receptor [1] of less than 1000 nM. In addition, in the assay with human GLP-1 receptor [2], the “ratio IC50 high HSA/IC50 low HSA” value is more than 1.

The values above are taken from patent US9708383 (Novo Nordisk, dated 2017).
